The source of these data is patent US7820375 (INSTITUT NATIONAL DE LA SANTE ET DE LA RECHERCHE MEDICALE …, dated 2010).

Sequences and labels used below:
T1: LexA-CRMP5 (complete human CRMP 5 protein fused to LexA, bait) (human, UniProt P0A7C2 1-202; Q9BPU6 1-564)
T1 sequence (looked up): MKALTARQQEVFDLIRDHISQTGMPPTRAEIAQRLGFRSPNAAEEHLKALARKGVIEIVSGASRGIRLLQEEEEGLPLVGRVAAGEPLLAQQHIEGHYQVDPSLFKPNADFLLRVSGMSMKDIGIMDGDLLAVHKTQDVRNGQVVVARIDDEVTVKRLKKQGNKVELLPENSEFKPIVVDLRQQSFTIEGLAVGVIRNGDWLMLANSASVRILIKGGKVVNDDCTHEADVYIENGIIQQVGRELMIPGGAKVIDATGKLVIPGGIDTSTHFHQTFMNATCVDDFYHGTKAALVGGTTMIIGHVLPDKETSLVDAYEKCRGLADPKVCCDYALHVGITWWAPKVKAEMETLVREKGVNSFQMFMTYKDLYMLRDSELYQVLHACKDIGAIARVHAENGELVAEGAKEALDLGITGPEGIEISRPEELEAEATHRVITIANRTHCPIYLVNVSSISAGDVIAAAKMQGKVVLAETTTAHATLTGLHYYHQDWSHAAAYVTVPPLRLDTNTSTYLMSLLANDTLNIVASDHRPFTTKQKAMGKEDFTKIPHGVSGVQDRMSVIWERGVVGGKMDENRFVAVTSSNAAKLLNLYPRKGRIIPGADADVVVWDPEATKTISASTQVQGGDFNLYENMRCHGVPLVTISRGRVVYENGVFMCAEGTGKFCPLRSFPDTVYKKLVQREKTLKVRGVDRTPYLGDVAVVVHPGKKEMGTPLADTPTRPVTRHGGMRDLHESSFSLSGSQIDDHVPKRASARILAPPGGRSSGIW

B1: Act-CRMP5 (complete human CRMP 5 protein fused to NLS-B42-HA, prey) (other, UniProt Q9BPU6 1-564, looked up, not shown: large carriers)
chain: MLANSASVRILIKGGKVVNDDCTHEADVYIENGIIQQVGRELMIPGGAKVIDATGKLVIPGGIDTSTHFHQTFMNATCVDDFYHGTKAALVGGTTMIIGHVLPDKETSLVDAYEKCRGLADPKVCCDYALHVGITWWAPKVKAEMETLVREKGVNSFQMFMTYKDLYMLRDSELYQVLHACKDIGAIARVHAENGELVAEGAKEALDLGITGPEGIEISRPEELEAEATHRVITIANRTHCPIYLVNVSSISAGDVIAAAKMQGKVVLAETTTAHATLTGLHYYHQDWSHAAAYVTVPPLRLDTNTSTYLMSLLANDTLNIVASDHRPFTTKQKAMGKEDFTKIPHGVSGVQDRMSVIWERGVVGGKMDENRFVAVTSSNAAKLLNLYPRKGRIIPGADADVVVWDPEATKTISASTQVQGGDFNLYENMRCHGVPLVTISRGRVVYENGVFMCAEGTGKFCPLRSFPDTVYKKLVQREKTLKVRGVDRTPYLGDVAVVVHPGKKEMGTPLADTPTRPVTRHGGMRDLHESSFSLSGSQIDDHVPKRASARILAPPGGRSSGIW
B2: LexA (bait vector without insert) (other)
chain: MKALTARQQEVFDLIRDHISQTGMPPTRAEIAQRLGFRSPNAAEEHLKALARKGVIEIVSGASRGIRLLQEEEEGLPLVGRVAAGEPLLAQQHIEGHYQVDPSLFKPNADFLLRVSGMSMKDIGIMDGDLLAVHKTQDVRNGQVVVARIDDEVTVKRLKKQGNKVELLPENSEFKPIVVDLRQQSFTIEGLAVGVIRNGDWL
notes: range 1-202

Experiment [1] has as its target T1, LexA-CRMP5 (complete human CRMP 5 …). As to the kind of experiment: yeast two-hybrid by conjugation, LexA bait and Act prey, lacZ reporter (X-gal).
For experiment [2], the target named is B1. The experiment is described as follows: yeast two-hybrid by conjugation, lacZ reporter (X-gal).

With B1, the binding result in experiment [1] is “binds”.

For the molecule B2, in experiment [2], the binding result is “no binding”.
